Measured values reported in patent US20200292536A1.

Legend:
[1] = target: MYC peptide Ac-…-amide (amino acids 9-24) (human); experiment: IHC with clone Y69 on donor block sections, alternative fixatives
[2] = target: MYC peptide Ac-…-amide (amino acids 9-24) (human); experiment: chromogenic IHC on BCL2/MYC peptide TMA
[3] = target: Bovine serum albumin (BSA; Ultra Pure) (bovine) (UniProt P02769); experiment: chromogenic IHC on TMA, cores without peptide
[4] = target: BCL2 peptide Ac-…-amide (amino acids 41-54 of human BCL2 with linkers) (human); experiment: chromogenic IHC on peptide/BSA gel TMA, antigen concentration at half-maximum signal
Chain of BCL2 peptide Ac-…-amide (amino acids 41-54 of human BCL2 with linkers) (human) (peptide, as listed by the source): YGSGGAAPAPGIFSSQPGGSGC

[5] = target: BCL2 peptide Ac-…-amide (amino acids 41-54 of human BCL2 with linkers) (human); experiment: chromogenic IHC, aggregate of 10 assays
[6] = target: Bovine serum albumin (BSA; Ultra Pure) (bovine) (UniProt P02769); experiment: chromogenic IHC, aggregate of 10 assays; BSA only cores
[7] = target: BCL2 peptide Ac-…-amide (amino acids 41-54 of human BCL2 with linkers) (human); experiment: chromogenic IHC, aggregate of 10 assays; BCL2 peptide 2.5E-04 M as formulated
[8] = target: Bovine serum albumin (BSA; Ultra Pure) (bovine) (UniProt P02769); experiment: immunofluorescent IHC on TMA, cores without peptide
[9] = target: BCL2 peptide Ac-…-amide (amino acids 41-54 of human BCL2 with linkers) (human); experiment: chromogenic IHC, aggregate of 10 assays; BCL2 peptide 2.5E-07 M as formulated
[10] = target: Bovine serum albumin (BSA; Ultra Pure) (bovine) (UniProt P02769); experiment: chromogenic IHC, aggregate of 10 assays; cores without peptide
[11] = target: BCL2 peptide Ac-…-amide (amino acids 41-54 of human BCL2 with linkers) (human); experiment: chromogenic IHC on BCL2 peptide TMA with or without prior antigen retrieval
[12] = target: BCL2 peptide Ac-…-amide (amino acids 41-54 of human BCL2 with linkers) (human); experiment: chromogenic IHC, aggregate of 10 assays; BCL2 peptide 2.5E-06 M as formulated
[13] = target: BCL2 peptide Ac-…-amide (amino acids 41-54 of human BCL2 with linkers) (human); experiment: chromogenic IHC, aggregate of 10 assays; BCL2 peptide 2.5E-05 M as formulated
[14] = target: BCL2 peptide Ac-…-amide (amino acids 41-54 of human BCL2 with linkers) (human); experiment: chromogenic IHC, aggregate of 10 assays; BCL2 peptide 2.5E-08 M as formulated
[15] = target: BCL2 peptide variant with N-terminal arginine (R-C) (human); experiment: chromogenic IHC with clone 124 on peptide/BSA gel TMA
Chain of BCL2 peptide variant with N-terminal arginine (R-C) (human) (peptide, as listed by the source mutant): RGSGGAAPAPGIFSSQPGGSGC

[16] = target: BCL2 peptide Ac-…-amide (amino acids 41-54 of human BCL2 with linkers) (human); experiment: IHC with clone 124 on donor block sections, alternative fixatives

Chain of UniProt P02769 (P02769 25-607 limits assumed): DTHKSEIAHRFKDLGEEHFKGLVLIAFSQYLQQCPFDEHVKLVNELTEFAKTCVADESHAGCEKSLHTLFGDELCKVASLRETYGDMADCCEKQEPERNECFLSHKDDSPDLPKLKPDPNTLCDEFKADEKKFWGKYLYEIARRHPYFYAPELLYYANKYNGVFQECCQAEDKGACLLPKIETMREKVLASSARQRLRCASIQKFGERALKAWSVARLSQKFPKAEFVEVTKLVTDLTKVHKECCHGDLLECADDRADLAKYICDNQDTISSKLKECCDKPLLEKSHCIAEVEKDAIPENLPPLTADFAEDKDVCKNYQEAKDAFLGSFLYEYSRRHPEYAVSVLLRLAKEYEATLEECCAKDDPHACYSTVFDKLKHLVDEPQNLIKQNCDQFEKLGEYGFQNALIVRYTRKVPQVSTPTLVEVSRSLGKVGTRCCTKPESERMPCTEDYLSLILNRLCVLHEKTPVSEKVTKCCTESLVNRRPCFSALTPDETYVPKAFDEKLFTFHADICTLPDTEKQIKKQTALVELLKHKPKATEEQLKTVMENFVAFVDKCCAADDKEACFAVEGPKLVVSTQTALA
Chain of MYC peptide Ac-…-amide (amino acids 9-24) (human) (peptide, as listed by the source): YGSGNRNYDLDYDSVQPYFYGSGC

| fold signal, formaldehyde fixation against zinc fixation during heating [1] [fold] | ACHM, fold lower than the BCL2 protocol (clone 124 on BCL2 peptide) [2] [fold] | non-specific signal in cores containing no added peptide, % of the maximum detectable signal [3] [%] | ACHM, fold lower than the ACHM for the chromogenic clone 124 assay [4] [fold] | ACHM, fold lower than the fluorescent clone 124 assay [4] [fold] | limit of detection (LOD), peptide concentration [5] [nM] | limit of detection (LOD), signal [5] [units] | Intensity Mean (pixel intensity units) [6] | Intensity Mean (pixel intensity units) [7] | non-specific signal in cores containing no added peptide, fold lower than in the chromogenic clone 124 assay [8] [fold] | Intensity Mean (pixel intensity units) [9] | limit of blank (LOB) [10] [units] | fold signal strength with against without antigen retrieval [11] [fold] | Intensity Mean (pixel intensity units) [12] | Intensity Mean (pixel intensity units) [13] | Intensity Mean (pixel intensity units) [14] | ACHM (antigen concentration at half-maximum signal) [15] [nM] | ACHM, fold lower than the original Y-C variant [15] [fold] | fold signal, formaldehyde fixation against zinc fixation during heating [16] [fold] | Substance |
| --- | --- | --- | --- | --- | --- | --- | --- | --- | --- | --- | --- | --- | --- | --- | --- | --- | --- | --- | --- |
| 10 | 4 |  |  |  |  |  |  |  |  |  |  |  |  |  |  |  |  |  | rabbit anti-human MYC clone Y69 (antibody) |
|  |  | 23 | 8 | > 50 |  |  |  |  |  |  |  |  |  |  |  |  |  |  | rabbit anti-human BCL2 clone EPR17509 (antibody) |
|  |  | 2.7 |  |  | 230 | 16 | 4.8 | 212 | 1000 | 18 | 8 | 6 | 105 | 202 | 6.1 | 443 | 6 | 10 | CONFIRM anti-bcl-2 (124) Mouse Monoclonal Primary Antibody |
